Data published in patent US20240228572A1 (I2O THERAPEUTICS, published 2024).
*1 amine or outer side, *2 acyl side, *3 side chain or, on linkers, in order; H or OH if unused. Bridges are numbered along the chain shown (N, C = ends). Primed or numbered codes have the meaning given here. Where no end group is shown, it is not given here. Side-chain parts run from the residue outwards. [ ]: non-standard residue; d: D form. The star is where a group is joined. dpeg″ = spacer —[CO(CH2)O(CH2)2O(CH2)NH]—, O=C(COCCOCN[*:1])[*:2]; dpeg = —[CO(CH2)O(CH2)2O(CH2)NH]— spacer, O=C(COCCOCN[*:1])[*:2]; C20 diacid = O=C(O)CCCCCCCCCCCCCCCCCCC(=O)*; γGlu = O=C(O)[C@H](CCC(=O)[*:2])N[*:1]; NMeE = CN[C@@H](CCC(=O)O)C(=O)O; Aib = CC(C)(N)C(=O)O

Tests used:
[1] = target: human Glucagon receptor (GCGR) (human, UniProt P47871 26-477); assay: cell-based or functional assay
[2] = target: human GLP-1 receptor (GLP-1R) (human, UniProt P43220 24-463); assay: cell-based or functional assay
Chain of human GLP-1 receptor (GLP-1R) (P43220 24-463): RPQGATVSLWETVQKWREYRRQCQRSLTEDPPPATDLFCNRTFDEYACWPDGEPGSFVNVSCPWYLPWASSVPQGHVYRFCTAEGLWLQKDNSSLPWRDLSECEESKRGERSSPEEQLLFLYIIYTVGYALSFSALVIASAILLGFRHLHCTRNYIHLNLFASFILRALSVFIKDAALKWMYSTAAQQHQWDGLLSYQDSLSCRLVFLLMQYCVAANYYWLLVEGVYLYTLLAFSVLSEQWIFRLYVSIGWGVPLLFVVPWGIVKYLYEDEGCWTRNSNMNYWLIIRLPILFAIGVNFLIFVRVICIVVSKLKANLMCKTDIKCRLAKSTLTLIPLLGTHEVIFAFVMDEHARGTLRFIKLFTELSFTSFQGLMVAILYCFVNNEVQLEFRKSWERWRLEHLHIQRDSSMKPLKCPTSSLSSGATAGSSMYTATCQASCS

Binder	pEC50, cAMP accumulation [1]	pEC50, cAMP accumulation [2]
YSHGTFTSDYSKYLDK([γGlu-γGlu-dpeg″-C20 diacid])KYAEKFVKWLEEEPSSGAPPPS-OH (lactam 20-24) [Compound A25]	11.9 pEC50 (-log M)	< 9 pEC50 (-log M)
YSHGTFTSDYSKYLDK([γGlu-γGlu-dpeg″-C20 diacid])KYAEKFVKWLEDEPSSGAPPPS-NH2 (lactam 20-24) [Compound A34]	11.9 pEC50 (-log M)	< 9 pEC50 (-log M)
YSHGTFTSDYSKYLDK([γGlu-γGlu-dpeg-C20 diacid])KYAQEFV[Aib]WLESEPSSGAPPPS-OH [Compound A19]	12.1 pEC50 (-log M)	< 9 pEC50 (-log M)
YSHGTFTSDYSKYLDK([γGlu-γGlu-dpeg-C20 diacid])KYAEEFV[Aib]WLESEPSSGAPPPS-OH [Compound A23]	11.5 pEC50 (-log M)	< 9 pEC50 (-log M)
Ac-YSHGTFTSDYSKYLD[Aib]KYAQK([γGlu-γGlu-dpeg″-C20 diacid])FVKWLEEEPSSGAPPPS-OH (lactam 24-28; SMILES CC(=O)N[C@@H](Cc1ccc(O)cc1)C(=O)N[C@@H](CO)C(=O)N[C@@H](Cc1c[nH]cn1)C(=O)NCC(=O)N[C@H](C(=O)N[C@@H](Cc1ccccc1)C(=O)N[C@H](C(=O)N[C@@H](CO)C(=O)N[C@@H](CC(=O)O)C(=O)N[C@@H](Cc1ccc(O)cc1)C(=O)N[C@@H](CO)C(=O)N[C@@H](CCCCN)C(=O)N[C@@H](Cc1ccc(O)cc1)C(=O)N[C@@H](CC(C)C)C(=O)N[C@@H](CC(=O)O)C(=O)NC(C)(C)C(=O)N[C@@H](CCCCN)C(=O)N[C@@H](Cc1ccc(O)cc1)C(=O)N[C@@H](C)C(=O)N[C@@H](CCC(N)=O)C(=O)N[C@@H](CCCCNC(=O)CC[C@H](NC(=O)CC[C@H](NC(=O)COCCOCNC(=O)CCCCCCCCCCCCCCCCCCC(=O)O)C(=O)O)C(=O)O)C(=O)N[C@@H](Cc1ccccc1)C(=O)N[C@H](C(=O)N[C@H]1CCCCNC(=O)CC[C@@H](C(=O)N[C@@H](CCC(=O)O)C(=O)N2CCC[C@H]2C(=O)N[C@@H](CO)C(=O)N[C@@H](CO)C(=O)NCC(=O)N[C@@H](C)C(=O)N2CCC[C@H]2C(=O)N2CCC[C@H]2C(=O)N2CCC[C@H]2C(=O)N[C@@H](CO)C(=O)O)NC(=O)[C@H](CCC(=O)O)NC(=O)[C@H](CC(C)C)NC(=O)[C@H](Cc2c[nH]c3ccccc23)NC1=O)C(C)C)[C@@H](C)O)[C@@H](C)O) [Compound A36]	10.8 pEC50 (-log M)	< 9 pEC50 (-log M)
YSHGTFTSDYSKYLDK([γGlu-γGlu-dpeg″-C20 diacid])KYAEKFVKWLENEPSSGAPPPS-OH (lactam 20-24) [Compound A27]	12 pEC50 (-log M)	< 9 pEC50 (-log M)
YSHGTFTSDYSKYLDK([γGlu-γGlu-dpeg″-C20 diacid])KYAEKFVKWLEDEPSSGSPPPS-OH (lactam 20-24) [Compound A33]	11.9 pEC50 (-log M)	< 9 pEC50 (-log M)
YSHGTFTSDYSKYLDK([γGlu-γGlu-dpeg-C20 diacid])KYAQEFV[Aib]WLE[NMeE]EPSSGAPPPS-OH [Compound A18]	10.4 pEC50 (-log M)	< 9 pEC50 (-log M)
YSHGTFTSDYSKYLDK([γGlu-γGlu-dpeg″-C20 diacid])KYAEKFVKWLEDEPSSGAPPPS-OH (lactam 20-24) [Compound A21]	12.1 pEC50 (-log M)	< 9 pEC50 (-log M)
YSHGTFTSDYSKYLDK([γGlu-γGlu-dpeg″-C20 diacid])KYAEKFVKWLEDE-NH2 (lactam 20-24) [Compound A35]	11.9 pEC50 (-log M)	< 9 pEC50 (-log M)
YSHGTFTSDYSKYLDK([γGlu-γGlu-dpeg″-C20 diacid])KYAEKFVKWLEDEPSSGEPPPS-OH (lactam 20-24) [Compound A31]	11.9 pEC50 (-log M)	< 9 pEC50 (-log M)
YSHGTFTSDYSKYLDK([γGlu-γGlu-dpeg″-C20 diacid])KYAEKFVKWLEDEPSSGKPPPS-OH (lactam 20-24) [Compound A32]	11.7 pEC50 (-log M)	< 9 pEC50 (-log M)
YSHGTFTSDYSKYLDK([γGlu-γGlu-dpeg-C20 diacid])KYASEFV[Aib]WLESEPSSGAPPPS-OH [Compound A24]	12.5 pEC50 (-log M)	< 9 pEC50 (-log M)
YSHGTFTSDYSKYLDK([γGlu-γGlu-dpeg-C20 diacid])KYAQEFV[Aib]WLEEEPSSGAPPPS-OH [Compound A15]	12.1 pEC50 (-log M)	< 9 pEC50 (-log M)
YSHGTFTSDYSKYLDK([γGlu-γGlu-dpeg-C20 diacid])KYAQEFV[Aib]WLENEPSSGAPPPS-OH [Compound A16]	12.2 pEC50 (-log M)	< 9 pEC50 (-log M)
YSHGTFTSDYSKYLD[Aib]KYAQK([γGlu-γGlu-C20 diacid])FV[Aib]WLEDEPSSGAPPPS-OH (N-terminus assumed; SMILES CC(C)C[C@H](NC(=O)[C@H](Cc1ccc(O)cc1)NC(=O)[C@H](CCCCN)NC(=O)[C@H](CO)NC(=O)[C@H](Cc1ccc(O)cc1)NC(=O)[C@H](CC(=O)O)NC(=O)[C@H](CO)NC(=O)[C@@H](NC(=O)[C@H](Cc1ccccc1)NC(=O)[C@@H](NC(=O)CNC(=O)[C@H](Cc1c[nH]cn1)NC(=O)[C@H](CO)NC(=O)[C@@H](N)Cc1ccc(O)cc1)[C@@H](C)O)[C@@H](C)O)C(=O)N[C@@H](CC(=O)O)C(=O)NC(C)(C)C(=O)N[C@@H](CCCCN)C(=O)N[C@@H](Cc1ccc(O)cc1)C(=O)N[C@@H](C)C(=O)N[C@@H](CCC(N)=O)C(=O)N[C@@H](CCCCNC(=O)CC[C@H](NC(=O)CC[C@H](NC(=O)CCCCCCCCCCCCCCCCCCC(=O)O)C(=O)O)C(=O)O)C(=O)N[C@@H](Cc1ccccc1)C(=O)N[C@H](C(=O)NC(C)(C)C(=O)N[C@@H](Cc1c[nH]c2ccccc12)C(=O)N[C@@H](CC(C)C)C(=O)N[C@@H](CCC(=O)O)C(=O)N[C@@H](CC(=O)O)C(=O)N[C@@H](CCC(=O)O)C(=O)N1CCC[C@H]1C(=O)N[C@@H](CO)C(=O)N[C@@H](CO)C(=O)NCC(=O)N[C@@H](C)C(=O)N1CCC[C@H]1C(=O)N1CCC[C@H]1C(=O)N1CCC[C@H]1C(=O)N[C@@H](CO)C(=O)O)C(C)C) [Compound A14]	11.2 pEC50 (-log M)	< 9 pEC50 (-log M)
YSHGTFTSDYSKYLDK([γGlu-γGlu-dpeg″-C20 diacid])KYAEKFVKWLESEPSSGAPPPS-OH (lactam 20-24) [Compound A28]	11.7 pEC50 (-log M)	< 9 pEC50 (-log M)
YSHGTFTSDYSKYLDK([γGlu-γGlu-dpeg″-C20 diacid])KYAEKFVKWLEKEPSSGAPPPS-OH (lactam 20-24) [Compound A26]	11.1 pEC50 (-log M)	< 9 pEC50 (-log M)
YSHGTFTSDYSKYLDK([γGlu-γGlu-dpeg-C20 diacid])KYAQEFV[Aib]WLEQEPSSGAPPPS-OH [Compound A17]	12.1 pEC50 (-log M)	< 9 pEC50 (-log M)
YSHGTFTSDYSKYLD[Aib]KYAQK([γGlu-γGlu-dpeg″-C20 diacid])FVKWLEDEPSSGAPPPS-OH (lactam 24-28) [Compound A30]	12.5 pEC50 (-log M)	< 9 pEC50 (-log M)
YSHGTFTSDYSKYLDK([γGlu-γGlu-dpeg-C20 diacid])KYAKEFV[Aib]WLESEPSSGAPPPS-OH [Compound A22]	11.7 pEC50 (-log M)	< 9 pEC50 (-log M)
YSHGTFTSDYSKYLDK([γGlu-γGlu-dpeg-C20 diacid])KYAQEFV[Aib]WLEKEPSSGAPPPS-OH [Compound A20]	12.1 pEC50 (-log M)	< 9 pEC50 (-log M)
YSHGTFTSDYSKYLDK([γGlu-γGlu-C20 diacid])KYAQEFV[Aib]WLEDEPSSGAPPPS-OH (N-terminus assumed; SMILES CC(C)C[C@H](NC(=O)[C@H](Cc1ccc(O)cc1)NC(=O)[C@H](CCCCN)NC(=O)[C@H](CO)NC(=O)[C@H](Cc1ccc(O)cc1)NC(=O)[C@H](CC(=O)O)NC(=O)[C@H](CO)NC(=O)[C@@H](NC(=O)[C@H](Cc1ccccc1)NC(=O)[C@@H](NC(=O)CNC(=O)[C@H](Cc1c[nH]cn1)NC(=O)[C@H](CO)NC(=O)[C@@H](N)Cc1ccc(O)cc1)[C@@H](C)O)[C@@H](C)O)C(=O)N[C@@H](CC(=O)O)C(=O)N[C@@H](CCCCNC(=O)CC[C@H](NC(=O)CC[C@H](NC(=O)CCCCCCCCCCCCCCCCCCC(=O)O)C(=O)O)C(=O)O)C(=O)N[C@@H](CCCCN)C(=O)N[C@@H](Cc1ccc(O)cc1)C(=O)N[C@@H](C)C(=O)N[C@@H](CCC(N)=O)C(=O)N[C@@H](CCC(=O)O)C(=O)N[C@@H](Cc1ccccc1)C(=O)N[C@H](C(=O)NC(C)(C)C(=O)N[C@@H](Cc1c[nH]c2ccccc12)C(=O)N[C@@H](CC(C)C)C(=O)N[C@@H](CCC(=O)O)C(=O)N[C@@H](CC(=O)O)C(=O)N[C@@H](CCC(=O)O)C(=O)N1CCC[C@H]1C(=O)N[C@@H](CO)C(=O)N[C@@H](CO)C(=O)NCC(=O)N[C@@H](C)C(=O)N1CCC[C@H]1C(=O)N1CCC[C@H]1C(=O)N1CCC[C@H]1C(=O)N[C@@H](CO)C(=O)O)C(C)C) [Compound A13]	12 pEC50 (-log M)	< 9 pEC50 (-log M)
